Measurements: article PMC6375729 (Molecular Cell, 2019)
Where no end group is shown, it is not given here.

Assays:
Settings in all cases: both partners purified
[1] = target: BRD4 first bromodomain (BD1), N44-E168 (human, UniProt O60885-1 44-168); assay: ITC; peptide in the syringe titrated into protein in the cell; 15 °C; 50 mM HEPES pH 7.5, 150 mM NaCl; single binding site model
[2] = target: BRD4 second bromodomain (BD2), D334-E460 (human, UniProt O60885-1 334-460); assay: as above
[3] = target: hexa-His-tagged BRD4 extra-terminal domain (BRD4/ET) (human, UniProt O60885-1 589-676); assay: peptide or protein array; cellulose SPOT peptide arrays probed with hexa-His-tagged BRD4 domains, detected with HRP-conjugated anti-His antibody

Kd [1] [µM]	stoichiometry N [1]	Kd [2] [µM]	stoichiometry N [2]	binding result [3]	Binder
–	–	–	–	binds	PKDKAIKKFVIRNIVEAA (peptide, UniProt P62854 31-48, looked up, RPS26 residues 31-48, motif printed as KFVIK; source: synthesised on cellulose membrane (SPOT)) [RPS26 peptide region, residues 31-48 (SPOT)]
–	–	–	–	binds	KTGSPEIKLKITKTIQ (peptide, UniProt Q9BZ95 147-162, looked up, source: synthesised on cellulose membrane (SPOT)) [WHSC1L1 peptide, amino acids 147–162 (SPOT)]

The next lines start with the binder.

Binder	Kd [1] [µM]	stoichiometry N [1]	Kd [2] [µM]	stoichiometry N [2]	binding result [3]
DGGK(Ac)SGK(Ac)APR [FOXO3 K242ac/K245ac peptide]	16.4 ± 0.5	0.49 ± 0.005	44.4 ± 2.89	0.64 ± 0.021	–
NSNK(Ac)YTK(Ac)SRG [FOXO3 K259ac/K262ac peptide]	158 ± 20.1	0.58 ± 0.385	–	–	–
IHCK(Ac)AGK(Ac)GRT [PTEN K125ac/K128ac peptide]	137 ± 16.9	0.81 ± 0.082	44.8 ± 3.03	0.6 ± 0.021	–
RRRK(Ac)RFK(Ac)RHQ [FOXD3 K235ac/K238ac peptide]	63.6 ± 1.6	0.64 ± 0.026	7.75 ± 0.12	0.75 ± 0.029	–
HFAK(Ac)ARK(Ac)VPS [FOXN3 K426ac/K429ac peptide]	37.8 ± 3.61	0.62 ± 0.311	25.7 ± 1.8	0.59 ± 0.018	–
LTNK(Ac)GHK(Ac)WKQ [DMTF1 K147ac/K150ac peptide]	70.4 ± 3	0.99 ± 0.061	29.4 ± 1.84	1.1 ± 0.031	–
